Reference: PMC7855469

Target: radial spoke protein 9 (RSP9) (C. reinhardtii)
Experiment: cryo-EM structure

radial spoke protein 9 (RSP9) (natural protein)
stoichiometry N: 2
